Measurements reported in the DeepSol protein solubility set.

Experiment: soluble on expression in E. coli; label from the status in PepcDB or PDB records

Q: Which “soluble on expression in E. coli” value does the source give for “MGSDKIHHHHHHMSRTTVLRSAESDLTLHGRDAMGTLMRTGTLTNFLKVAQQLDFDPQPLLRKLGLTKEMLADPECLIPGSASVTLLKESARLTQCPTFGLRVAERWQLSDLGVISVLLTHQSTLRDAVGTLIQYRHLLNEFLVIRMEDVGRKVIVREELVADEAGTSIQSTELVLGSLSRLCSTLMGATWHPLSVHFTHDPPPDLRLHRRVFGGKLEFASSFNGMICRAADMDFPNPIADPVMARHARRLLEGLPGAKEPSIVLEVRKAIYLLLPLGRATIEQVAQGLGMNVRMLQRQLESAGMVFSDMVNGVRRDLVIHYMDNKSYTLGRIAQSLGYSAYGSFVRWFAAQFGMTPTRWQSLRQQKEDGRSPIQIHC” here?
A: not soluble

Q: With “MKVIVVGCTHAGTFAVKQTIADHPDADVTAYEMNDNISFLSCGIALYLGKEIKNNDPRGLFYSSPEELSNLGANVQMRHQVTNVDPETKTIKVKDLITNEEKTEAYDKLIMTTGSKPTVPPIPGIDSSRVYLCKNYNDAKKLFEEAPKAKTITIIGSGYIGAELAEAYSNQNYNVNLIDGHERVLYKYFDKEFTDILAKDYEAHGVNLVLGSKVAAFEEVDDEIITKTLDGKEIKSDIAILCIGFRPNTELLKGKVAMLDNGAIITDEYMHSSNRDIFAAGDSAAVHYNPTNSNAYIPLATNAVRQGRLVGLNLTEDKVKDMGTQSSSGLKLYGRTYVSTGINTALAKANNLKVSEVIIADNYRPEFMLSTDEVLMSLVYDPKTRVILGGALSSMHDVSQSANVLSVCIQNKNTIDDLAMVDMLFQPQFDRPFNYLNILGQAAQAQADKAHK” as the sequence, how does the “soluble on expression in E. coli” value read?
A: soluble

Q: Which “soluble on expression in E. coli” value does the source give for “MAQLENQILETLKPLIDANTGKSYVAAKNVKNLKCGDAEISLDVVLAYPAKSQFDAVRQQFEAALAPLAEGRAIKIAVSAQIVSHSAQRGVPLLPGVKNVIAVASGKGGVGKSTTAANLALALADEGARVGLLDADIYGPSQPLMMGLQGQRPETADGKLTPLSNHGIQTMSIGYLVDADQAMVWRGPMVSQALQQLLNDTRWDDLDYLVIDMPPGTGDVQLTLSQKVPVTGALIVTTPQDIALLDARKGVTMFQKVGVPILGLVENMAIHVCSNCGHAEHIFGEGGAVKMAQDFGVELLGSLPLDLAIRQAVDEGRPSVAADPSGKPAELYRAIARRVAVKVGEKAQDFSGKFPKIVIQNNLEHHHHHH” here?
A: not soluble

Q: For “KITGLLDGDRVIVFDKNGISKLSARHYGNVEGNFLSLSLVEALYLINLGWLEVKYKDNKPLSFEELYEYARNVEERLCLKYLVYKDLRTRGYIVKTGLKYGADFRLYERGANIDKEHSVYLVKVFPEDSSFLLSELTGFVRVAHSVRKKLLIAIVDADGDIVYYNMTYVKP”, which “soluble on expression in E. coli” value is on record?
A: soluble

Q: Which “soluble on expression in E. coli” value does the source give for “MSLARCERLRGAALRDVLGRAQGVLFDCDGVLWNGERAVPGAPELLERLARAGKAALFVSNNSRRARPELALRFARLGFGGLRAEQLFSSALCAARLLRQRLPGPPDAPGAVFVLGGEGLRAELRAAGLRLAGDPSAGDGAAPRVRAVLVGYDEHFSFAKLREACAHLRDPECLLVATDRDPWHPLSDGSRTPGTGSLAAAVETASGRQALVVGKPSPYMFECITENFSIDPARTLMVGDRLETDILFGHRCGMTTVLTLTGVSRLEEAQAYLAAGQHDLVPHYYVESIADLTEGLEDEGHHHHHH” here?
A: soluble

Q: For “MFYDGYAYHGTTFEQTYRCYPSSFIDKPQIESGDKIIMPPSALDRLASLQIDYPMLFELRNASTDSFSHCGVLEFIAEEGVIYIPYWMMQNLLLQEGDMVRVRNVTLPKGTYVKLQPHTTDFLDIANPKAILETALRNYSCLTVGDSIMVPYNNKKYFIDIVEAKPSNGISIIETDCEVDFAPPLDYKEPERPVAPAPAKGEAKAKEVDVAEAEPKFNPFTGSGRRLDGRPLSYEPQPGAANSNGQSHPVASSSSSGSEKATQQNRGKLVFGSNVERSTKETTKVGAGKDRKQEEEAEKEAKFQAFSGKKYSLRG”, which “soluble on expression in E. coli” value is on record?
A: soluble

Q: For “MGSDKIHHHHHHMRAVTAQAITEAVAKLCKEACYYVTPDMYAAFKKAEETEVSPLGKHILGRIIENADIAKREDMPICQDTGMTVVFVEIGQEVKIEGGYIEDAINAGVAKGYTEGYLRKSVVGEPLFNRANTKDNTPAVIHTRIVPGDKLKLKVCPKGFGSENKSVLKMLVPADGLEGVKKVFLEAVKLAGPNACPPMVIGVGIGGTMEKAAILAKKAAVRSVDSYNEHPDYAQLEKDLLEMACATGVGPQGLGGINTAVKVNIEWYPTHIAGLPVAVNINCHAARHADVTL”, which “soluble on expression in E. coli” value is on record?
A: not soluble

Q: For “MSLSTELDFEKPIRDLKGKIEELRTFTEEKEIDLSDEIEKLEKRLHALEENIYGNLKPWQRVQIARHGERPTTLDYIEQLFSDFLEMHGDRLYGDDEAIVAGIAKYKGQPVTVIGHQRGKDTKENIRRNFGMPHPEGYRKALRLMKQAEKFHRPVICFIDTKGAYPGKAAEERGQSEAIARNLLEMAGLKVPIVCIVIGEGGSGGALALGVGDRIHMLENSTYSVISPEGAAALLWKDASQAQRAAETMKITAPDLKELQIIDDIIPEVRGGAHRNVAEQAEAIDQVLEKSLKQLSSLTTEELLNKRYEKYKKIGEFSHVNDAISVNEGHHHHHH”, which “soluble on expression in E. coli” value is on record?
A: soluble

Q: For “MAGLGELERAVMDHLWSTSEPQTVRQVHEALAARRELAYTTVMTVLQRLAKKHLVIQQRDDRAHRYLPVHQREELVASLMVDALQQADKSGSRAAALVHFVGQVGADEADALREALAALEAKERSTGDNQSGTVRAG”, which “soluble on expression in E. coli” value is on record?
A: not soluble

Q: Which “soluble on expression in E. coli” value does the source give for “MGSDKIHHHHHHMMKHLTLWHTNDVHSHLEHWPRIFNFLKEKRTAADKENQSALFFDIGDFLDRVHPLTEGTNGLANTDLLNQLPYDVVTFGNNEGTTLAHEDLDKLYEHAVFPVVCCNFYTNKECTEQPDWVKSIVYKEIEQVKIAIIGATAPFRDYYEEMGWGIEEPISSIKKQVAGLDEDTDVVILLSHLGLPSDERIALEIPEVDVILGGHTHHLLETGKIEGNALLAAAGRWGEYIGKVDIELDENNQILTKTAMTFKTEDLPAAPNEANEIQGFFDKGRAELSEKVVAIPGKLAHNWFDDSEIAHILNEAVCEWTGAETFVMNAGIFMTDFEAGIVTDFDIHQMLPHPLNAIALTMSGEELEILIDGIYRKKAELQDIPLRGFGFRGEYFGTVLMERAGFDAENQVALFDNKPIDKTREYRIATHDTFVFAPFFPIVKQIKRKEVYTPELLRDILKWKLKKMYGQEEDK” here?
A: not soluble

Q: Which “soluble on expression in E. coli” value does the source give for “MDYHIQEEKILEVLKENVYGLRGSIAFSGGLDSSLLYVISDRNLVPYTVGYSFSHDVNRAKFVLSLLNGSGKYVTLDEINIENYVKYLKSEYPDINKVEISFELVLEILLENVDSDLLVTGQGADELFFGYKRSVNEMDNSLQMERLLKRTIPREKDMAKRQGKELVTPFLDDRILKLASEISPAYHCLYGGKKALREIAKIAGLPEEVYGYRKKAAQYGSGIDKALKSVSYFGLF” here?
A: not soluble

Q: With “GRDFRFSISPNFTWVKNAVEKLANGATEEINNNRIVGQPIGIIYGYETDGLFVDQAEIDAAPEQLVSKSGLKPGYVKYKDISGPDGVPDGKVDAQYDRTVLGSTTPKFYYGLNLSASYKGFDFSALLQGLGGHKRLIGSYMAYAFYNGGQIQRWQAESCWKEENPDKWAEYPRLETLNMNDTNLQTSDYWVRNASFLRVKNIQIGYTFPKAWTKKIGLENVRVYVSGQNLFSFNSFYKGWDPENEIGTGDSPSYYPVNSIYSFGFNFKF” as the sequence, how does the “soluble on expression in E. coli” value read?
A: not soluble

Q: Which “soluble on expression in E. coli” value does the source give for “MGSDKIHHHHHHMRKERDYLGKLEIEGEVYYGIHTKRALMNFPSTGEKLDETFIWAYFMVKKACALLNTELGYLDERTGNAIVKACDEWEDLKKHVVVDPLSGGAGTSINMNVNEVIANRATEILGGKKGEYLVDPIDHVNLHQSTNDTFPTSAKIATIVKLRRLIDEVINLQEKIQEKEKEFYSIRKPGRTQLMDGPPIMLGQEFGAFADALARDRWRLYKVEERIRSVNIGGTAIGTGVGAPKDYILKIVEKVREVTKVKIAKAENLIDATQNWDVFAEVHGLLKSLAVNLYKISNDIRLLGSGPNTVIGELILPAVQAGSSIMPGKINPVVSEYVMQICHMVFGHDMILNHACALGNLELNQFAPLIVHLTLKSLTLLTNACRSLASYISKIKANNERCEEHLRRSVSNLTPLIKLFGYEAVSEAIKKANWDIKKAVEILSQEKNIPVEEILKVLNLKKMTGLGYSL” here?
A: not soluble

Q: With “MGHHHHHHSHMANSAGSMANSAGSMFKLYSLAREFARDLLFEINGDVVTLSIKGVLLANTSSTSSNFSIFEVSENEFILAIQTSGYVVYLGIEAEEEIEEEVYPSLVRIIISEVMPIINNLVQVAKELSYKGADILLDDNMSSSLREAMYNLLLKHKKGKSPYEQVEVA” as the sequence, how does the “soluble on expression in E. coli” value read?
A: not soluble

Q: With “MLSKGAVIDKLKSYKPCENCNGPISKTVSISDLNLDKRKRNCVCGNSQLDDVMLDVLNLMSEYNELQNTDLKDVTLRDAGTPLVEIGYPLKYLPVVSNDELIVMKDVSKACATEILKIPEVKGVISNNSKNNSFNRVEDSGEVNALIAGDDFRCDIFVLKSIMDCVVICKNQSKVHIEFPRPFNPKIAKIDRLNLKGKVVVDGFCGSGTLGLAALKKGAKKVIFSDINPHALKDVIYNLKLNFSKEVFDRIEIINSDFLNLDIVGDVCFVDLFPHMDKEPFLNKAKTISKQVVLILEHHHHHH” as the sequence, how does the “soluble on expression in E. coli” value read?
A: not soluble

Q: For “INFPILDEPLVLSNATILTIEDVSVYSSLVKHFYQYDVDEHLKLFDDKQKSLKATELMLVTDILGYDVNSAPILKLIHGDLENQFNEKPEVKSMVEKLAATITELIAFECLENELDLEYDEIKILELIKALGVKIETQSDTIFEKCFEIIQVYHYLTKKNLLVFVNSGAYLTKDEVIKLCEYINLMQKSVLFLEPRRLYDLPQYVIDKDYFLIGEN”, which “soluble on expression in E. coli” value is on record?
A: not soluble

Q: Which “soluble on expression in E. coli” value does the source give for “MTALTWTDERVEQLKKLWEGGLSASQIAAELGNVTRNAVIGKVHRLGLSGRAKSPTSAAPRPRKARPVQQMMRVTRPVARGNTALAHAFEVEAEPDPIAFDNVVPMNQRLSLLELNEATCHWPVGDPSSPEFFFCGGKSLPGLPYCAHHSRIAYQPVGDRRRAAPKTTRLEHHHHHH” here?
A: soluble

Q: For “GPGSMARVTLREDFDDCAADYRILSVSADHFKEITCKVAACKQTGEEMGKINETHHEATTLMTMKGGSQLLLCDDERTFRVRRVEYSNTLLLAEAKAAKMHDTNGIIESDNASDAGEGREHVVVCSSERVFEVKPSVAYNDISQHLLESPLTLKELDTLGTVERSDENVEYIKREELENGTSSSAQRFYTFPQLVALNRSSARELAVILSDMGAVVFNGYVRLLKPALMREALRASLNFFDAYDTMSWEGVMEQLCPSVYPHIVLRAVRAAYGNATASGETPRGMAAFLQVPKVLQALAASVLLADDAEQNTQFTEAELQDKKLSKSVNRRGSLFPELDFDIFYDSWTSSIPSSLFADGTLPSQSDRNALLKFLYGSVIVVRNAEGDSHVGARAVWAPSNVLSTDVSLRTRQLFEIRPGRWEAEELRAYVAPLLDPGVAFDHIIVRYAKEYRVPGRPVMYGNLS”, which “soluble on expression in E. coli” value is on record?
A: not soluble

Q: For “MSEIHAGGCHCGRLRYQFDAPLKDIAHCHCSICWRTSGATVVTWISVPLASFKWLTGSPAAYDSAATCVRYFCGNCGAHMALFTRNSPNEMDVTIATLDQPELAVPSRHIWIENRLPWLHLDEDLPGDEGEP”, which “soluble on expression in E. coli” value is on record?
A: not soluble

Q: Which “soluble on expression in E. coli” value does the source give for “VRAPGVRAADGAGRVVLYLHGGAFVMCGPNSHSRIVNALSGFAESPVLIVDYRLIPKHSLGMALDDCHDAYQWLRARGYRPEQIVLAGDSAGGYLALALAQRLQCDDEKPAAIVAISPLLQLAKGPKQDHPNIGTDAMFPARAFDALAAWVRAAAAKNMVDGRPEDLYEPLDHIESSLPPTLIHVSGSEVLLHDAQLGAGKLAAAGVCAEVRVWPGQAHLFQLATPLVPEATRSLRQIGQFIRDATADSSLSPVHRSRYVAGSPRAASRGAFGQSPI” here?
A: not soluble

Q: With “MRLVIHGKNIDITDGIRSYLNQKIERATSHFQNVINEVDVHLSVARNRSTAPKQTAEVTVFVNGSVIRAEESSENLYASIDLVADKIARKLRKLKEKRQDKSRAKDTNSVVEPEVVTDLVGDRTPQLPEQVVRMKYFAMPPMTIQEALEHLEMVDHDFYVFRNRDTGEINVVYERNHGGYGVIQPRPTSNNHHHNTADAAAKATAKAGPLEHHHHHH” as the sequence, how does the “soluble on expression in E. coli” value read?
A: soluble
